What all share (experiment): BLI
Background: BLI is a label-free optical method that tracks binding on a fibre tip over time.

For experiment [1], the target named is H1 CA09 stem.
Experiment [2] addresses H6 HA (recombinant, Figure 4e) (influenza A virus (H6 subtype, strain …)).
Experiment [3] has as its target H5 VN04 HA trimer (A/Vietnam/1203/2004) (influenza A virus A/Vietnam/1203/2004 …).
The target in experiment [4] is H7 AN13 HA trimer (A/Anhui/1/2013) (influenza A virus A/Anhui/1/2013 (H7N9)).
Experiment [5] deals with H10 JD13 HA trimer (A/Jiangxi-Donghu/346/2013, H10N8) (influenza A virus …).
The target in experiment [6] is H1 HA (recombinant, Figure 4e) (influenza A virus (H1 subtype, strain …)).

B1: 789-203-3C12 Fab (Fab, V domains shown)
VH: QVQLQESGPGLVKPSEILSLTCAVSGGSFSSYCWGWIRQPPGKGLEWIGSICGSGGSNYLNPSLKSRVTLSVDTSKNQFSLILNSVTAADTAVYYCAREGITIFGVVIPRVLDSWGQGAVVTVSS
VL: DIQMTQSPSSLSASVGDTVTITCRASQSISSWLAWYQQKPGKAPNLLIYRASTLQSGVPSRFSGSGSGTDFTLTISSLQSEDFATYFCQQSTSSPFTFGPGTKLDIK
With B1, the Kd in experiment [1] was 5.66 nM; in experiment [2], 27.5 nM; in experiment [3], 151 nM; in experiment [4], 534 nM; in experiment [5] it was 81.6 nM; in experiment [6], 6.59 nM.

For orientation: Kd means the free concentration of one partner at which half of the binding sites on the other are occupied at equilibrium, for simple one-to-one binding.

These data come from paper doi:10.1101/2022.02.11.480115 (2022).
